Assay results: patent publication US20210388087A1 (Chugai, published 2021)
Positions count from the first letter of the chain named. Names may count otherwise. Values belong to the binder of their own block, whether it stands above or below them.

What was measured:
Human CD3eg linker = biological target: T1, Human CD3eg linker (human); assay: SPR, vs unmutated H183/L072
T1 construct: single-chain construct; also called recombinant human CD3
T1 chain: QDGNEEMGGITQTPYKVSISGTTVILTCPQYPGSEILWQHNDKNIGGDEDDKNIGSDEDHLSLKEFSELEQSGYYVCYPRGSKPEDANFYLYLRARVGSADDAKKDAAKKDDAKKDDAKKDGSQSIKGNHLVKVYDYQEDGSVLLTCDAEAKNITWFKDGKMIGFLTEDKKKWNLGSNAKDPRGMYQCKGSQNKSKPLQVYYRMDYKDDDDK

[1] = biological target: T2, CD3 epsilon homodimer protein (UniProt P07766 23-126); assay: SPR, antibody over immobilised CD3e homodimer;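 note: SPR at 25 °C with CD3 epsilon homodimer amine-coupled to a CM4 sensor chip and antibody flowed over as analyte in HBS-EP+ running buffer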
T2 construct: also called CD3 (CD3 epsilon)
T2 sequence (P07766 23-126): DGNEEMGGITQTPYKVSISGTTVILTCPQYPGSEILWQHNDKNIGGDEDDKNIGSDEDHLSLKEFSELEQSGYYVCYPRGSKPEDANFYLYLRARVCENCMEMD
Procedure: An appropriate amount of CD3 epsilon homodimer protein was immobilized onto Sensor chip CM4 (GE Healthcare Japan Corp.) by the amine coupling method. Then, the antibody having an appropriate concentration was injected thereto as an analyte and allowed to interact with the CD3 epsilon homodimer protein on the sensor chip. Then, the sensor chip was regenerated by the injection of 10 mmol/L glycine-HCl (pH 1.5). The assay was conducted at 25 degrees C., and HBS-EP+(GE Healthcare Japan Corp.) was used as a running buffer. […] Each parameter was calculated using Biacore T200 Evaluation Software (GE Healthcare Japan Corp.).

- fold change of affinity (Human CD3eg linker): 1.8 fold
B1: dBBDu183H P61V/dBBDu072L (antibody, name in Kabat numbering, V domains shown)
VH: QVQLVESGGGLVQPGRSLRLSCAASGFTFSNAWMHWVRQAPGKGLEWVAQIKDKGNAYAAYYAVSVKGRFTISRDDSKNSIYLQMNSLKTEDTAVYYCHYVHYASASTVLPAFGVDAWGQGTTVTVSS
VL: DIVMTQSPLSLPVTPGEPASISCQASQELVHMNRNTYLHWYQQKPGQAPRLLIYKVSNRFPGVPDRFSGSGSGTDFTLKISRVEAEDVGVYYCAQGTSVPFTFGQGTKLEIK

- KD ratio to GLS3000 [1]: 4.51
B2: CE115HA000/GLS3000 Y32F (antibody, IgG1, name in Kabat numbering, V domains shown)
VH: QVQLVESGGGVVQPGRSLRLSCAASGFTFSNAWMHWVRQAPGKGLEWVAQIKAKSNNYATYYAESVKGRFTISRDDSKNSLYLQMNSLKTEDTAVYYCRYVHYGAYYGVDAWGQGTTVTVSS
VL: B1 VL with Q24R, A25S, E28S, M32S, Y37F, P61S, A94G, S98Q, F101Y
notes: one-arm IgG1

- fold change of affinity (Human CD3eg linker): 1.4 fold
B3: dBBDu183H A98G/dBBDu072L (antibody, name in Kabat numbering, V domains shown)
VH: B1 VH with V64P, A104G
VL: B1 VL

- KD ratio to GLS3000 [1]: 80.3
B4: CE115HA000/GLS3000 Y96H (antibody, IgG1, name in Kabat numbering, V domains shown)
VH: B2 VH
VL: B1 VL with Q24R, A25S, E28S, M32S, P61S, A94G, S98Q, F101H
notes: one-arm IgG1

- KD ratio to GLS3000 [1]: 1.84
B5: CE115HA000/GLS3000 Y96L (antibody, IgG1, name in Kabat numbering, V domains shown)
VH: B2 VH
VL: B1 VL with Q24R, A25S, E28S, M32S, P61S, A94G, S98Q, F101L
notes: one-arm IgG1

- KD ratio to GLS3000 [1]: 0.86
B6: CE115HA000/GLS3000 Y96F (antibody, IgG1, name in Kabat numbering, V domains shown)
VH: B2 VH
VL: B1 VL with Q24R, A25S, E28S, M32S, P61S, A94G, S98Q
notes: one-arm IgG1

- KD ratio to GLS3000 [1]: 66.8
B7: CE115HA000/GLS3000 Y32A (antibody, IgG1, name in Kabat numbering, V domains shown)
VH: B2 VH
VL: B1 VL with Q24R, A25S, E28S, M32S, Y37A, P61S, A94G, S98Q, F101Y
notes: one-arm IgG1

- fold change of affinity (Human CD3eg linker): 5.9 fold
B8: dBBDu183H A98H/dBBDu072L (antibody, name in Kabat numbering, V domains shown)
VH: B1 VH with V64P, A104H
VL: B1 VL

- KD ratio to GLS3000 [1]: 1.1
B9: CE115HA000/GLS3000 V94P (antibody, IgG1, name in Kabat numbering, V domains shown)
VH: B2 VH
VL: B1 VL with Q24R, A25S, E28S, M32S, P61S, A94G, S98Q, V99P, F101Y
notes: one-arm IgG1

- KD ratio to GLS3000 [1]: 1.06
B10: CE115HA000/GLS3000 V94T (antibody, IgG1, name in Kabat numbering, V domains shown)
VH: B2 VH
VL: B1 VL with Q24R, A25S, E28S, M32S, P61S, A94G, S98Q, V99T, F101Y
notes: one-arm IgG1

- fold change of affinity (Human CD3eg linker): 7 fold
B11: dBBDu183H A98W/dBBDu072L (antibody, name in Kabat numbering, V domains shown)
VH: B1 VH with V64P, A104W
VL: B1 VL

- fold change of affinity (Human CD3eg linker): 4.6 fold
B12: dBBDu183H A98K/dBBDu072L (antibody, name in Kabat numbering, V domains shown)
VH: B1 VH with V64P, A104K
VL: B1 VL

- KD ratio to GLS3000 [1]: 40.9
B13: CE115HA000/GLS3000 Y96D (antibody, IgG1, name in Kabat numbering, V domains shown)
VH: B2 VH
VL: B1 VL with Q24R, A25S, E28S, M32S, P61S, A94G, S98Q, F101D
notes: one-arm IgG1

- KD ratio to GLS3000 [1]: 2.74
B14: CE115HA000/GLS3000 V94M (antibody, IgG1, name in Kabat numbering, V domains shown)
VH: B2 VH
VL: B1 VL with Q24R, A25S, E28S, M32S, P61S, A94G, S98Q, V99M, F101Y
notes: one-arm IgG1

- fold change of affinity (Human CD3eg linker): 1.1 fold
B15: dBBDu183H A100S/dBBDu072L (antibody, name in Kabat numbering, V domains shown)
VH: B1 VH with V64P, A106S
VL: B1 VL

- fold change of affinity (Human CD3eg linker): 0.8 fold
B16: dBBDu183H A100N/dBBDu072L (antibody, name in Kabat numbering, V domains shown)
VH: B1 VH with V64P, A106N
VL: B1 VL

- fold change of affinity (Human CD3eg linker): 2 fold
B17: dBBDu183H A98T/dBBDu072L (antibody, name in Kabat numbering, V domains shown)
VH: B1 VH with V64P, A104T
VL: B1 VL

- fold change of affinity (Human CD3eg linker): 1.2 fold
B18: dBBDu183H A100H/dBBDu072L (antibody, name in Kabat numbering, V domains shown)
VH: B1 VH with V64P, A106H
VL: B1 VL

- fold change of affinity (Human CD3eg linker): 1.4 fold
B19: dBBDu183H A100F/dBBDu072L (antibody, name in Kabat numbering, V domains shown)
VH: B1 VH with V64P, A106F
VL: B1 VL

- fold change of affinity (Human CD3eg linker): 0.4 fold
B20: dBBDu183H A98D/dBBDu072L (antibody, name in Kabat numbering, V domains shown)
VH: B1 VH with V64P, A104D
VL: B1 VL

- KD ratio to GLS3000 [1]: 1.1
B21: CE115HA000/GLS3000 V94Q (antibody, IgG1, name in Kabat numbering, V domains shown)
VH: B2 VH
VL: B1 VL with Q24R, A25S, E28S, M32S, P61S, A94G, S98Q, V99Q, F101Y
notes: one-arm IgG1

- fold change of affinity (Human CD3eg linker): 4.7 fold
B22: dBBDu183H A98V/dBBDu072L (antibody, name in Kabat numbering, V domains shown)
VH: B1 VH with V64P, A104V
VL: B1 VL

- fold change of affinity (Human CD3eg linker): 0.5 fold
B23: dBBDu183H A100D/dBBDu072L (antibody, name in Kabat numbering, V domains shown)
VH: B1 VH with V64P, A106D
VL: B1 VL

- fold change of affinity (Human CD3eg linker): 0.8 fold
B24: dBBDu183H A100Q/dBBDu072L (antibody, name in Kabat numbering, V domains shown)
VH: B1 VH with V64P, A106Q
VL: B1 VL

- fold change of affinity (Human CD3eg linker): 1.4 fold
B25: dBBDu183H A100G/dBBDu072L (antibody, name in Kabat numbering, V domains shown)
VH: B1 VH with V64P, A106G
VL: B1 VL

- KD ratio to GLS3000 [1]: 1.81
B26: CE115HA000/GLS3000 V94W (antibody, IgG1, name in Kabat numbering, V domains shown)
VH: B2 VH
VL: B1 VL with Q24R, A25S, E28S, M32S, P61S, A94G, S98Q, V99W, F101Y
notes: one-arm IgG1

- fold change of affinity (Human CD3eg linker): 1.5 fold
B27: dBBDu183H A98N/dBBDu072L (antibody, name in Kabat numbering, V domains shown)
VH: B1 VH with V64P, A104N
VL: B1 VL

- fold change of affinity (Human CD3eg linker): 1.9 fold
B28: dBBDu183H A100K/dBBDu072L (antibody, name in Kabat numbering, V domains shown)
VH: B1 VH with V64P, A106K
VL: B1 VL

- KD ratio to GLS3000 [1]: 0.81
B29: CE115HA000/GLS3000 V94S (antibody, IgG1, name in Kabat numbering, V domains shown)
VH: B2 VH
VL: B1 VL with Q24R, A25S, E28S, M32S, P61S, A94G, S98Q, V99S, F101Y
notes: one-arm IgG1

- KD ratio to GLS3000 [1]: 62
B30: CE115HA000/GLS3000 Y32P (antibody, IgG1, name in Kabat numbering, V domains shown)
VH: B2 VH
VL: B1 VL with Q24R, A25S, E28S, M32S, Y37P, P61S, A94G, S98Q, F101Y
notes: one-arm IgG1

- KD ratio to GLS3000 [1]: 2.45
B31: CE115HA000/GLS3000 V94Y (antibody, IgG1, name in Kabat numbering, V domains shown)
VH: B2 VH
VL: B1 VL with Q24R, A25S, E28S, M32S, P61S, A94G, S98Q, V99Y, F101Y
notes: one-arm IgG1

- fold change of affinity (Human CD3eg linker): 1 fold
B32: dBBDu183H A98S/dBBDu072L (antibody, name in Kabat numbering, V domains shown)
VH: B1 VH with V64P, A104S
VL: B1 VL

- fold change of affinity (Human CD3eg linker): 25.1 fold
B33: dBBDu183H A98Y/dBBDu072L (antibody, name in Kabat numbering, V domains shown)
VH: B1 VH with V64P, A104Y
VL: B1 VL

- fold change of affinity (Human CD3eg linker): 2.1 fold
B34: dBBDu183H A100R/dBBDu072L (antibody, name in Kabat numbering, V domains shown)
VH: B1 VH with V64P, A106R
VL: B1 VL

- KD ratio to GLS3000 [1]: 46.8
B35: CE115HA000/GLS3000 Y96E (antibody, IgG1, name in Kabat numbering, V domains shown)
VH: B2 VH
VL: B1 VL with Q24R, A25S, E28S, M32S, P61S, A94G, S98Q, F101E
notes: one-arm IgG1

- KD ratio to GLS3000 [1]: 3.06
B36: CE115HA000/GLS3000 V94L (antibody, IgG1, name in Kabat numbering, V domains shown)
VH: B2 VH
VL: B1 VL with Q24R, A25S, E28S, M32S, P61S, A94G, S98Q, V99L, F101Y
notes: one-arm IgG1

- fold change of affinity (Human CD3eg linker): 0.7 fold
B37: dBBDu183H A98Q/dBBDu072L (antibody, name in Kabat numbering, V domains shown)
VH: B1 VH with V64P, A104Q
VL: B1 VL

- fold change of affinity (Human CD3eg linker): 0.3 fold
B38: dBBDu183H A98E/dBBDu072L (antibody, name in Kabat numbering, V domains shown)
VH: B1 VH with V64P, A104E
VL: B1 VL

- KD ratio to GLS3000 [1]: 1.11
B39: CE115HA000/GLS3000 V94R (antibody, IgG1, name in Kabat numbering, V domains shown)
VH: B2 VH
VL: B1 VL with Q24R, A25S, E28S, M32S, P61S, A94G, S98Q, V99R, F101Y
notes: one-arm IgG1

- fold change of affinity (Human CD3eg linker): 2.7 fold
B40: dBBDu183H A98R/dBBDu072L (antibody, name in Kabat numbering, V domains shown)
VH: B1 VH with V64P, A104R
VL: B1 VL

- fold change of affinity (Human CD3eg linker): 12.1 fold
B41: dBBDu183H A98F/dBBDu072L (antibody, name in Kabat numbering, V domains shown)
VH: B1 VH with V64P, A104F
VL: B1 VL

- KD ratio to GLS3000 [1]: 25.9
B42: CE115HA000/GLS3000 Y32D (antibody, IgG1, name in Kabat numbering, V domains shown)
VH: B2 VH
VL: B1 VL with Q24R, A25S, E28S, M32S, Y37D, P61S, A94G, S98Q, F101Y
notes: one-arm IgG1

- fold change of affinity (Human CD3eg linker): 0.5 fold
B43: dBBDu183H A100E/dBBDu072L (antibody, name in Kabat numbering, V domains shown)
VH: B1 VH with V64P, A106E
VL: B1 VL

- KD ratio to GLS3000 [1]: 0.96
B44: CE115HA000/GLS3000 V94N (antibody, IgG1, name in Kabat numbering, V domains shown)
VH: B2 VH
VL: B1 VL with Q24R, A25S, E28S, M32S, P61S, A94G, S98Q, V99N, F101Y
notes: one-arm IgG1
